The values below come from US20200283521A1 (GRANULAR THERAPEUTICS, published 2020).

The target in assay [1] is T1, human C-KIT-Fc (human, UniProt P10721 26-524).
T1 construct: also called biotinylated human C-KIT-Fc; not shown: Fc part not described
In words: direct ELISA at 1 µg/ml. (In general: In an ELISA, binding on a coated surface is turned into a signal by an enzyme label.)

Assay [2] addresses T2, cynomolgus monkey C-KIT-Fc (cynomolgus monkey).
T2 construct: also called cyno C-KIT-Fc
In words: direct ELISA at 1 µg/ml.

The target in the next assay is T3, hLTBR-Fc (human, UniProt P36941).
T3 construct: Fc fusion; member of the panel m9
In words: direct ELISA on coated protein, IgG1.

Another assay has as its target T4, hDR6-Fc (human, UniProt O75509).
T4 construct: Fc fusion; member of the panel m9
T4 sequence (looked up): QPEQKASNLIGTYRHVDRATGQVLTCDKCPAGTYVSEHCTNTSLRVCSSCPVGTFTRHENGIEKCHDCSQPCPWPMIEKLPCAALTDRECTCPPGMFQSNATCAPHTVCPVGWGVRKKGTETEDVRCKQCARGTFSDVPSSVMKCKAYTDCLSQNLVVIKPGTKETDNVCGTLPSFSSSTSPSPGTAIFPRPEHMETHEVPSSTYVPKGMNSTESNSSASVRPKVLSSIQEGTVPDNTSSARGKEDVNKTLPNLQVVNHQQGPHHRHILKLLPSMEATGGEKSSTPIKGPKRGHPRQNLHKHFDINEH
In words: direct ELISA on coated protein, IgG1.

The next assay addresses T5, hVCAM-1 (human, UniProt P19320).
T5 construct: purified recombinant protein; member of the panel m9
T5 sequence (looked up): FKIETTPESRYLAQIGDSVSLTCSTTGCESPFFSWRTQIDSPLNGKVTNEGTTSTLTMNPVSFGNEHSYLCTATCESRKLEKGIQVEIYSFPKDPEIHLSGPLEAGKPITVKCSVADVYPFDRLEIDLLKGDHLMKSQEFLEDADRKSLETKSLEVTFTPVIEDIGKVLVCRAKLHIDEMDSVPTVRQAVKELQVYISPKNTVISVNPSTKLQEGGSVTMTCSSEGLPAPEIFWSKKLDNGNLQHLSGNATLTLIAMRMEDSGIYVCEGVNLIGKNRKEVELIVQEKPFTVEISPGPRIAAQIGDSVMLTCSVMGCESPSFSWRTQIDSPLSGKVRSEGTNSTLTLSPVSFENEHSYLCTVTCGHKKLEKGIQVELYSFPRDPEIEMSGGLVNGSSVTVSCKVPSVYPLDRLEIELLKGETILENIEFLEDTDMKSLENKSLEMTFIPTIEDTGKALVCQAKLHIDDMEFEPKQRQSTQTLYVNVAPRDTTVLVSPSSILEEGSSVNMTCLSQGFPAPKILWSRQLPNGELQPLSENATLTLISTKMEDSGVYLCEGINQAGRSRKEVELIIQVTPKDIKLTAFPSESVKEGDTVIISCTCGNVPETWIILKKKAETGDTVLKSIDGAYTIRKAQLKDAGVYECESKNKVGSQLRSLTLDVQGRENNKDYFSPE
Description: direct ELISA on coated protein, IgG1.

The target of another assay is T6, hEpCAM-Fc (human, UniProt P16422).
T6 construct: Fc fusion; member of the panel m9
T6 sequence (looked up): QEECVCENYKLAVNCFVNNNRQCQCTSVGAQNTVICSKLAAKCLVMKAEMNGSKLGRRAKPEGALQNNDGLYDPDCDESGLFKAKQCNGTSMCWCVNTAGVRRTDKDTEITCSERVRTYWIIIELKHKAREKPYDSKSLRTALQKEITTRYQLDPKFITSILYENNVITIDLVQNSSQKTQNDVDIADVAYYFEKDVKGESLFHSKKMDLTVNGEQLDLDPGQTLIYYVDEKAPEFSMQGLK
Description: direct ELISA on coated protein, IgG1.

In the next assay the target is T7, hDR3-Fc (human, UniProt Q93038).
T7 construct: Fc fusion; member of the panel m9
T7 sequence (looked up): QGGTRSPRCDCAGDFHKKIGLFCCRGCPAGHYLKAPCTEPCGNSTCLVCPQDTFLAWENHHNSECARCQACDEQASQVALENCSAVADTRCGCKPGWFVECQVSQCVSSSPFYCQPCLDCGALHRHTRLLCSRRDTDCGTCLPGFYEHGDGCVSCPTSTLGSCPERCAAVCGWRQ
Description: direct ELISA on coated protein, IgG1.

The target in another assay is T8, hCMET-Fc (The natural ectodomain is cleaved by furin after residue 307 into disulfide-linked alpha and beta chains. It is given here as one continuous stretch.).
T8 construct: member of the panel m9
T8 chain: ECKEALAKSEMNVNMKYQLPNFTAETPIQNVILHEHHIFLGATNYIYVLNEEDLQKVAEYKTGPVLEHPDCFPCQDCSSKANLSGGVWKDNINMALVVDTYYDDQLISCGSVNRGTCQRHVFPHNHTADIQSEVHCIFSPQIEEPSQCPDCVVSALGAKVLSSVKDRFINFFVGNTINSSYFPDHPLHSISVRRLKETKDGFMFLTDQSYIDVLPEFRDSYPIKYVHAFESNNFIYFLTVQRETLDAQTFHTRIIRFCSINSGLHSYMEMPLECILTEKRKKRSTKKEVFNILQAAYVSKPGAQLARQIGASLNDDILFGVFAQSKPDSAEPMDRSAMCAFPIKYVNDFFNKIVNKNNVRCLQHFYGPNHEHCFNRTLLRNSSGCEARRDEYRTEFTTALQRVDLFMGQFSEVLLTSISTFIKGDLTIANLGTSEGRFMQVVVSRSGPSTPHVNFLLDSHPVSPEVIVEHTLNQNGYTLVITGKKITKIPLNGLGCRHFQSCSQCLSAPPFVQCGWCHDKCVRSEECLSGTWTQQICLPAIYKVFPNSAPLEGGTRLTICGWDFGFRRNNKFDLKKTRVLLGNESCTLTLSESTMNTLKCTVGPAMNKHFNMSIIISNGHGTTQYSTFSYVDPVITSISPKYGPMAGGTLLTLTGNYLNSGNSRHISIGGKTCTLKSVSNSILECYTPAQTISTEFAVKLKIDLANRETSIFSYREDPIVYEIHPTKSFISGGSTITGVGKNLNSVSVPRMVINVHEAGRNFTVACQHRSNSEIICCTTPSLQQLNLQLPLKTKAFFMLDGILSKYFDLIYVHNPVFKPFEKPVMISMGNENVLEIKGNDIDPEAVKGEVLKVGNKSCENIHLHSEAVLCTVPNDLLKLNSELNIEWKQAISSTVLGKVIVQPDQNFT
In words: direct ELISA on coated protein, IgG1.

The target in another assay is T9, h4-1BB-Fc.
T9 construct: member of the panel m9
Description: direct ELISA on coated protein, IgG1.

The target in another assay is T10, hBAFFR-Fc (human, UniProt Q96RJ3).
T10 construct: Fc fusion; member of the panel m9
In words: direct ELISA on coated protein, IgG1.

The target in another assay is T11, hVCAM-Fc.
T11 construct: member of the panel m9
T11 chain: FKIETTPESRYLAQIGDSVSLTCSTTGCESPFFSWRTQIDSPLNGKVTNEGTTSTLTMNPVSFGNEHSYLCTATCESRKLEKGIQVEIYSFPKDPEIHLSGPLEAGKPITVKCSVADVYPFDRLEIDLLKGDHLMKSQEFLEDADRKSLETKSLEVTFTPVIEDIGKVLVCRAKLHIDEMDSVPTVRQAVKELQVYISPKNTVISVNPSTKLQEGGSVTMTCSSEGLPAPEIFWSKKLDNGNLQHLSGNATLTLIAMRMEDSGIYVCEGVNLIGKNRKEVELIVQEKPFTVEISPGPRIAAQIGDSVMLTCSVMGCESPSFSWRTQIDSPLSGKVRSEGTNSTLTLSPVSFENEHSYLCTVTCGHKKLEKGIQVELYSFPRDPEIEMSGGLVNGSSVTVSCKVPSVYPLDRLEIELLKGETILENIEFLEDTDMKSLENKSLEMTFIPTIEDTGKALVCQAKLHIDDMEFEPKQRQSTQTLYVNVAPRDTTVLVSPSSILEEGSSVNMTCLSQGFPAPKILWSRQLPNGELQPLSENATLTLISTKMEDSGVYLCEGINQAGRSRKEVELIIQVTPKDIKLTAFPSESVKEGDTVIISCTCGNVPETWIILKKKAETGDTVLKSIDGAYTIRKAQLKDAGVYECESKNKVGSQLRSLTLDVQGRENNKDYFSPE
Description: direct ELISA on coated protein, IgG1.

For another assay, the target named is T12, hCD4 (human, UniProt P01730).
T12 construct: purified recombinant protein; member of the panel m9
Description: direct ELISA on coated protein, IgG1.

The target of another assay is T13, hTWEAK-Fc (human, UniProt O43508).
T13 construct: Fc fusion; member of the panel m9
T13 sequence (looked up): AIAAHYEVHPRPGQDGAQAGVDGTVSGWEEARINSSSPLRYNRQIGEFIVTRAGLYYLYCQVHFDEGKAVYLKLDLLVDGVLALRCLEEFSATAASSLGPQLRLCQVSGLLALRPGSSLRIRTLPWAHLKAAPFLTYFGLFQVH
Description: direct ELISA on coated protein, IgG1.

Another assay addresses T14, hOX40-Fc.
T14 construct: member of the panel m9
T14 chain: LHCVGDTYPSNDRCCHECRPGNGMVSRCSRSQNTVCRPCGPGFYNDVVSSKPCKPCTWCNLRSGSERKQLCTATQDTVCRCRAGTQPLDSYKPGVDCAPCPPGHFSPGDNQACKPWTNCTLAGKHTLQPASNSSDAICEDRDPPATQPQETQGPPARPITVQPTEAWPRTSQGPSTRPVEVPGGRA
Description: direct ELISA on coated protein, IgG1.

In another assay the target is T15, hICAM-1-Fc (human, UniProt P05362).
T15 construct: Fc fusion; member of the panel m9
Description: direct ELISA on coated protein, IgG1.

Assay [3] has as its target T1, human C-KIT-Fc. In words: direct titration ELISA on coated C-KIT-Fc, IgG1 format.
Assay [4] deals with T16, human C-KIT, full length, on cells (human, UniProt P10721 26-976).
T16 construct: full-length cDNA stably transfected in CHO-K1; also used here for endogenous C-KIT of TF-1 cells; also called human C-KIT+ CHO-K1 cells; C-KIT on TF-1 cells
Description: flow cytometry, C-KIT-transfected CHO-K1 cells, IgG1 format. A general note: Flow cytometry measures light scatter and fluorescence of single cells or particles in a stream.

For assay [5], the target named is T1, human C-KIT-Fc. Description: HTRF competition on human C-KIT-Fc against terbium-labelled h37M IgG1.

One may read the EC50 (read off the curve) as the midpoint of the concentration-response curve.

T3 sequence (P36941 28-227 limits assumed): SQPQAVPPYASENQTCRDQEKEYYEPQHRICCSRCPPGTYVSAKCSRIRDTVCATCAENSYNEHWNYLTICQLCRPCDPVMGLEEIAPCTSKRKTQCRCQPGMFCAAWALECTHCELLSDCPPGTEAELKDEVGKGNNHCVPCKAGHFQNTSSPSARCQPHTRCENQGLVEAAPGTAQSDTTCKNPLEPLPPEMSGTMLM
T10 sequence (Q96RJ3 7-71 limits assumed): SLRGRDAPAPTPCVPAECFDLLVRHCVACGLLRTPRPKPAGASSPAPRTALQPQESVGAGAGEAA
T9 sequence (chain, as listed by the source limits assumed): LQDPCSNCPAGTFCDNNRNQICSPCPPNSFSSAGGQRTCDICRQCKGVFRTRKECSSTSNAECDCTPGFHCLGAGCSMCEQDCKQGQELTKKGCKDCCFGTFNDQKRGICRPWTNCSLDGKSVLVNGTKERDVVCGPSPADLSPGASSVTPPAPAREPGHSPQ
T15 sequence (P05362 28-480 limits assumed): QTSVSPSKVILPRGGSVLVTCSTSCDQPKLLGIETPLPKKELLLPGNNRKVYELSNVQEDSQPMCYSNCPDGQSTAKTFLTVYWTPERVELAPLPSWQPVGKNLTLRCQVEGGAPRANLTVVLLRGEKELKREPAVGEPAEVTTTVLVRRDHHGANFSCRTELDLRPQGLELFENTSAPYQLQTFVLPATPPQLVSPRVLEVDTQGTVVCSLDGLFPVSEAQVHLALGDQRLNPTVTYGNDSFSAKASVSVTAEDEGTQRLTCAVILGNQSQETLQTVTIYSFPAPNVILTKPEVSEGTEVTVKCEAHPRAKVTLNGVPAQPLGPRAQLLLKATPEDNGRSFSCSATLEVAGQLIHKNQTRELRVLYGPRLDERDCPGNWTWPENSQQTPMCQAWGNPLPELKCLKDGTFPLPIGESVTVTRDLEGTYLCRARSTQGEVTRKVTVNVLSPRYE

B1: E-C2 (antibody, IgG1, V domains shown)
VH: QVQLVQSGAEVKKPGASVKVSCKASGYTFTDYYMNWVRQAPGQGLEWMGRIYPGSGNTYYAQKFQGRVTMTRDTSTSTVYMELSSLRSEDTAVYYCARGVYYLDYWGQGTLVTVSS
VL: DIQMTQSPSSLSASVGDRVTITCRASQGIRTNVAWLQQKPGKAPKSLIYSASYRQSGVPSRFSGSGSGTDFTLTISSLQPEDFATYYCQQYNSYPRTFGGGTKVEIK
notes: IgG1; also called C-KIT-E-C2
Consider B1, for which the OD450 nm was over 1.8 OD450 nm with human C-KIT-Fc [1] and over 2 OD450 nm in assay [2]. In addition, the binding result with hLTBR-Fc, with hDR6-Fc, with hVCAM-1, in the assay with hEpCAM-Fc, with hDR3-Fc and with hCMET-Fc was “no binding (tested: 1 µg/ml)” each time. Also, the binding result with h4-1BB-Fc, with hBAFFR-Fc, in the assay with hVCAM-Fc, in the assay with hCD4, with hTWEAK-Fc and in the assay with hOX40-Fc was “no binding (tested: 1 µg/ml)” each time. Further, in the assay with hICAM-1-Fc, the binding result is given as “no binding (tested: 1 µg/ml)”. In addition, in the assay with human C-KIT-Fc [3], the “EC50 (read off the curve)” value is about 0.1 µg/mL.

B2: MH7 (antibody, IgG1, V domains shown)
VH: QVQLVQSGAEVKKPGASVKVSCKASGYTFTDYYMNWVRQAPGQGLEWMGRIYPGSGNTYYAQKFQGRVTMTRDTSTSTVYMELSSLRSEDTAVYYCARGVYYYDYWGQGTLVTVSS
VL: DIQMTQSPSSLSASVGDRVTITCRASQGIRTNLAWFQQKPGKAPKSLIYSASSLQSGVPSRFSGSGSGTDFTLTISSLQPEDFATYYCQQYNSYPHTFGGGTKVEIK
notes: IgG1
For B2, the binding result (in [4]; with human C-KIT-Fc [5]) was “binds” in each case.
